Test results taken from patent publication US20230212182A1 (DUALITY BIOLOGICS SUZHOU, published 2023).

Target: T1, Trop2 (UniProt P09758 27-323, limits assumed)
T1 sequence (looked up): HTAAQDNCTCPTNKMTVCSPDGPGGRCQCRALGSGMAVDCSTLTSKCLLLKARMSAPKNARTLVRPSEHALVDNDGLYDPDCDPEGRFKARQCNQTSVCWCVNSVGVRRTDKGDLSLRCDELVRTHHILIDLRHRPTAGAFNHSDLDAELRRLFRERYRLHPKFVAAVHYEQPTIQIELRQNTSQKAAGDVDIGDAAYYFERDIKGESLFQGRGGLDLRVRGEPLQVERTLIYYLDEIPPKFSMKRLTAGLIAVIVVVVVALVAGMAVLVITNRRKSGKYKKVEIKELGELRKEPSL
Test: cell-based or functional assay

B1: Reference ADC-2 (Sacituzumab-Deruxtecan) (antibody, human IgG1, kappa, V domains shown)
VH: QVQLQQSGSELKKPGASVKVSCKASGYTFTNYGMNWVKQAPGQGLKWMGWINTYTGEPTYTDDFKGRFAFSLDTSVSTAYLQISSLKADDTAVYFCARGGFGSSYWYFDVWGQGSLVTVSS
VL: DIQLTQSPSSLSASVGDRVSITCKASQDVSIAVAWYQQKPGKAPKLLIYSASYRYTGVPDRFSGSGSGTDFTLTISSLQPEDFAVYYCQQHYITPLTFGAGTKVEIKR
modifications: Deruxtecan linker-drug conjugated after TCEP reduction of disulfide bonds (cysteine positions not stated); mean n=4.18 per antibody
IC50 (nM), inhibition of in vitro proliferation of Colo205 cells (CTG, 6 days): 152 nM | IC50 (nM), inhibition of in vitro proliferation of SK-OV-3 cells (CTG, 6 days): 501 nM

B2: ADC-II-11-a (antibody, human IgG1, kappa, V domains shown)
VH: B1 VH
VL: B1 VL
modifications: linker-drug L-II-3 conjugated after TCEP reduction of disulfide bonds (cysteine positions not stated); mean n=3.73 per antibody
IC50 (nM), inhibition of in vitro proliferation of Colo205 cells (CTG, 6 days): 121 nM | IC50 (nM), inhibition of in vitro proliferation of SK-OV-3 cells (CTG, 6 days): 448 nM

B3: ADC-III-28 (antibody, human IgG1, kappa, V domains shown)
VH: B1 VH
VL: B1 VL
modifications: linker-drug L-III-30 conjugated after TCEP reduction of disulfide bonds (cysteine positions not stated); mean n=3.67 per antibody
IC50 (nM), inhibition of in vitro proliferation of Colo205 cells (CTG, 6 days): 77.6 nM | IC50 (nM), inhibition of in vitro proliferation of SK-OV-3 cells (CTG, 6 days): 394 nM
